Molecular target: Rabbit skeletal actin (unoxidized) (rabbit) (UniProt P68135)
Test: other fluorescence titration; profilin stock titrated into 0.15 uM actin; quenching of the intrinsic tryptophan fluorescence of actin, excitation 295 nm, emission 330 nm; 5 mM PIPES pH 7, 0.2 mM CaCl2, 0.2 mM ATP, 0.5 mM DTT (G-buffer conditions)

human profilin-1 (from UniProt P07737 1-140) (natural protein; other documents disagree on this pair)
Kd: 500 nM

Source: publication PMC8452626
